In patent publication US20160222085A1 (CHILDREN S HOSPITAL OF PHILADELPHIA, published 2016):
Blank lines part the entries; values can stand above or below the molecule they belong to.

Assays:
[1] = molecular target: FV-810 (FV-DT), Factor V with amino acids 811-1491 deleted from the B-domain (human) (UniProt P12259); assay: fluorescence anisotropy displacement of OG488-BR; FXaS195A titrated into 30 nM OG488-BR, 20 nM FV-810, 50 uM PCPS
[2] = molecular target: FV-810 (FV-DT), Factor V with amino acids 811-1491 deleted from the B-domain (human) (UniProt P12259); assay: fluorescence anisotropy, displacement; FXa S195A titrated into 30 nM OG488-BR, 20 nM FV-810, 50 uM PCPS, 25 C; displaced ligand: OG488-BR
[3] = molecular target: FV-810 (FV-DT), Factor V with amino acids 811-1491 deleted from the B-domain (human) (UniProt P12259); assay: global fit of prethrombin-2 activation rates (1-50 nM FXa, 0-1000 nM BR, 5 nM FV-810, 50 uM PCPS) to a tight, competitive binding model
[4] = molecular target: T1, Oregon Green 488 maleimide-modified BR (OG488-BR) (human, Oregon Green 488 maleimide on the added N-terminal Cys); assay: fluorescence anisotropy; buffer-pretreated FV-810 QQ titrated into 30 nM OG488-BR with 50 uM PCPS
T1 construct: also called fluorescently labeled FVBR
T1 peptide: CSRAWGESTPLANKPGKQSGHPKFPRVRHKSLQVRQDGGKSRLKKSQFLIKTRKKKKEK
Description: (§1) FV-810, FV-810^R709Q (▴), FV-810^R1545Q (♦), and FV-810^QQ (▪) were pretreated with buffer (FIG. 14A) or thrombin (FIG. 14B).
(§2) Steady-state fluorescence anisotropy was measured at 25° C. in a PTI Quanta-Master™ fluorescence spectrophotometer (Photon Technology International, Birmingham, N.J.) using excitation and emission wavelengths of 480 and 520 nm, respectively, with long-pass filters (KV500, CVI Melles Griot) in the emission beam.

[5] = molecular target: T1, Oregon Green 488 maleimide-modified BR …; assay: fluorescence anisotropy; thrombin-pretreated, hirudin-quenched FV-810 QQ titrated into 30 nM OG488-BR with 50 uM PCPS
Description: as §1, §2

[6] = molecular target: T1, Oregon Green 488 maleimide-modified BR …; assay: fluorescence anisotropy; buffer-pretreated FV-810 R1545Q titrated into 30 nM OG488-BR with 50 uM PCPS
Description: as §1, §2

[7] = molecular target: T1, Oregon Green 488 maleimide-modified BR …; assay: fluorescence anisotropy; buffer-pretreated FV-810 R709Q titrated into 30 nM OG488-BR with 50 uM PCPS
Description: as §1, §2

[8] = molecular target: FV-810 (FV-DT), Factor V with amino acids 811-1491 deleted from the B-domain (human) (UniProt P12259); assay: fluorescence anisotropy displacement of OG488-BR
[9] = molecular target: FV-810 (FV-DT), Factor V with amino acids 811-1491 deleted from the B-domain (human) (UniProt P12259); assay: fluorescence anisotropy, displacement; bovine BR titrated into 30 nM OG488-BR, 20 nM FV-810, 50 uM PCPS, 25 C; competitor: OG488-BR
[10] = molecular target: FV-810 (FV-DT), Factor V with amino acids 811-1491 deleted from the B-domain (human) (UniProt P12259); assay: fluorescence anisotropy displacement of OG488-BR; 30 nM OG488-BR, 20 nM FV-810, 50 uM PCPS; stoichiometry of 1 assumed
Target sequence in this assay (P12259 other isoform, or with tags, fused parts or gaps, form in doubt): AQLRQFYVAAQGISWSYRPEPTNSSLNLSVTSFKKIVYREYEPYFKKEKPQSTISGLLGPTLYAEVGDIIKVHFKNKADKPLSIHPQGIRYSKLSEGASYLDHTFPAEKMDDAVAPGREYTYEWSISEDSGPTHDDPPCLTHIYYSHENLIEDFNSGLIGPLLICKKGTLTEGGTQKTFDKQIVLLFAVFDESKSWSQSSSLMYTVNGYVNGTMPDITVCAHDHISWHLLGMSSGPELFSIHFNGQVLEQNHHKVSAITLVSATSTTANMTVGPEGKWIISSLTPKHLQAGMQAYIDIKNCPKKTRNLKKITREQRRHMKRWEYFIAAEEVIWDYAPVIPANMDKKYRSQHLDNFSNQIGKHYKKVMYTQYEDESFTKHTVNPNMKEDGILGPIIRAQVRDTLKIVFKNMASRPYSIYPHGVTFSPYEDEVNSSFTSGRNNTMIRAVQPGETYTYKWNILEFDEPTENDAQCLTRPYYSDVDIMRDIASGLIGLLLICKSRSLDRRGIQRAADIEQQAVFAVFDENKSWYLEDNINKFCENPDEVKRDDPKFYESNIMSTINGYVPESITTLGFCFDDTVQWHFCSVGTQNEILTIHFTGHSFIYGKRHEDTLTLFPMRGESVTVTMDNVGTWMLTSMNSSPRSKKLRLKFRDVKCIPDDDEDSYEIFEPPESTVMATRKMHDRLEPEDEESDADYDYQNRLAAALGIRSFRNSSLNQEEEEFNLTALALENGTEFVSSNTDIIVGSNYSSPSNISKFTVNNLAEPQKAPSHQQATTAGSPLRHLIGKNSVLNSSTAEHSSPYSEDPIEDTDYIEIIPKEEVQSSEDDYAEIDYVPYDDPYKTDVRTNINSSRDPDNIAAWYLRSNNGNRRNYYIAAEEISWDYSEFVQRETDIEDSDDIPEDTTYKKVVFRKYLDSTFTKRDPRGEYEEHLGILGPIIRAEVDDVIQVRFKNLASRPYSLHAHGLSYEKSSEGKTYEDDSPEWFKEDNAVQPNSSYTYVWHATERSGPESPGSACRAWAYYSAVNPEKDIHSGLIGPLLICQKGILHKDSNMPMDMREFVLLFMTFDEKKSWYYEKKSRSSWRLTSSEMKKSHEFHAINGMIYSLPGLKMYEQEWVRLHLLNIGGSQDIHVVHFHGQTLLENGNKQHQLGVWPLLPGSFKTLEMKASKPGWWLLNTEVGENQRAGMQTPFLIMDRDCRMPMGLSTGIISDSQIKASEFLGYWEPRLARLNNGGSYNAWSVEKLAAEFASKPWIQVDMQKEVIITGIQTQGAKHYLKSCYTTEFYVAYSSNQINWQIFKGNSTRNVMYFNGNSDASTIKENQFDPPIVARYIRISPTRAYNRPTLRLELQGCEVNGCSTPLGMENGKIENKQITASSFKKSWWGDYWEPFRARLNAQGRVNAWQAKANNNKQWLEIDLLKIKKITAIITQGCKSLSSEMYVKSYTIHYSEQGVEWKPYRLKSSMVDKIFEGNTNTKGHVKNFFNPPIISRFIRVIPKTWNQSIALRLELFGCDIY

Molecule: catalytically inactive FXa^S195A (from UniProt P00742 41-179; P00742 235-488) (enzyme)
n (stoichiometry) (mol of FXa/mol of FV-810) [1]: 1.1
IC50 (read off the curve) [2]: 40 nM

B1: FV-810^QQ (other, human, UniProt P12259 29-838, looked up)
chain: AQLRQFYVAAQGISWSYRPEPTNSSLNLSVTSFKKIVYREYEPYFKKEKPQSTISGLLGPTLYAEVGDIIKVHFKNKADKPLSIHPQGIRYSKLSEGASYLDHTFPAEKMDDAVAPGREYTYEWSISEDSGPTHDDPPCLTHIYYSHENLIEDFNSGLIGPLLICKKGTLTEGGTQKTFDKQIVLLFAVFDESKSWSQSSSLMYTVNGYVNGTMPDITVCAHDHISWHLLGMSSGPELFSIHFNGQVLEQNHHKVSAITLVSATSTTANMTVGPEGKWIISSLTPKHLQAGMQAYIDIKNCPKKTRNLKKITREQRRHMKRWEYFIAAEEVIWDYAPVIPANMDKKYRSQHLDNFSNQIGKHYKKVMYTQYEDESFTKHTVNPNMKEDGILGPIIRAQVRDTLKIVFKNMASRPYSIYPHGVTFSPYEDEVNSSFTSGRNNTMIRAVQPGETYTYKWNILEFDEPTENDAQCLTRPYYSDVDIMRDIASGLIGLLLICKSRSLDRRGIQRAADIEQQAVFAVFDENKSWYLEDNINKFCENPDEVKRDDPKFYESNIMSTINGYVPESITTLGFCFDDTVQWHFCSVGTQNEILTIHFTGHSFIYGKRHEDTLTLFPMRGESVTVTMDNVGTWMLTSMNSSPRSKKLRLKFRDVKCIPDDDEDSYEIFEPPESTVMATRKMHDRLEPEDEESDADYDYQNRLAAALGIQSFRNSSLNQEEEEFNLTALALENGTEFVSSNTDIIVGSNYSSPSNISKFTVNNLAEPQKAPSHQQATTAGSPLRHLIGKNSVLNSSTAEHSSPYSEDPIEDTDYIEIIPKEEVQSSEDDYAEIDYVPYDDPYKTDVRTNINSSRDPDNIAAWYLQSNNGNRRNYYIAAEEISWDYSEFVQRETDIEDSDDIPEDTTYKKVVFRKYLDSTFTKRDPRGEYEEHLGILGPIIRAEVDDVIQVRFKNLASRPYSLHAHGLSYEKSSEGKTYEDDSPEWFKEDNAVQPNSSYTYVWHATERSGPESPGSACRAWAYYSAVNPEKDIHSGLIGPLLICQKGILHKDSNMPMDMREFVLLFMTFDEKKSWYYEKKSRSSWRLTSSEMKKSHEFHAINGMIYSLPGLKMYEQEWVRLHLLNIGGSQDIHVVHFHGQTLLENGNKQHQLGVWPLLPGSFKTLEMKASKPGWWLLNTEVGENQRAGMQTPFLIMDRDCRMPMGLSTGIISDSQIKASEFLGYWEPRLARLNNGGSYNAWSVEKLAAEFASKPWIQVDMQKEVIITGIQTQGAKHYLKSCYTTEFYVAYSSNQINWQIFKGNSTRNVMYFNGNSDASTIKENQFDPPIVARYIRISPTRAYNRPTLRLELQGCEVNGCSTPLGMENGKIENKQITASSFKKSWWGDYWEPFRARLNAQGRVNAWQAKANNNKQWLEIDLLKIKKITAIITQGCKSLSSEMYVKSYTIHYSEQGVEWKPYRLKSSMVDKIFEGNTNTKGHVKNFFNPPIISRFIRVIPKTWNQSIALRLELFGCDIY
notes: range 1-810;range 1492-2196; Both thrombin sites (Arg709 and Arg1545) changed to Gln; The same molecule is used for the thrombin-pretreated sample, since both cleavage sites are removed; the assay field says where thrombin pretreatment was used
EC50 (read off the curve) [4]: ~9 nM
EC50 (read off the curve) [5]: 10 to 15 nM

B2: FV-810^R1545Q (other, human, UniProt P12259 29-838, looked up)
chain: AQLRQFYVAAQGISWSYRPEPTNSSLNLSVTSFKKIVYREYEPYFKKEKPQSTISGLLGPTLYAEVGDIIKVHFKNKADKPLSIHPQGIRYSKLSEGASYLDHTFPAEKMDDAVAPGREYTYEWSISEDSGPTHDDPPCLTHIYYSHENLIEDFNSGLIGPLLICKKGTLTEGGTQKTFDKQIVLLFAVFDESKSWSQSSSLMYTVNGYVNGTMPDITVCAHDHISWHLLGMSSGPELFSIHFNGQVLEQNHHKVSAITLVSATSTTANMTVGPEGKWIISSLTPKHLQAGMQAYIDIKNCPKKTRNLKKITREQRRHMKRWEYFIAAEEVIWDYAPVIPANMDKKYRSQHLDNFSNQIGKHYKKVMYTQYEDESFTKHTVNPNMKEDGILGPIIRAQVRDTLKIVFKNMASRPYSIYPHGVTFSPYEDEVNSSFTSGRNNTMIRAVQPGETYTYKWNILEFDEPTENDAQCLTRPYYSDVDIMRDIASGLIGLLLICKSRSLDRRGIQRAADIEQQAVFAVFDENKSWYLEDNINKFCENPDEVKRDDPKFYESNIMSTINGYVPESITTLGFCFDDTVQWHFCSVGTQNEILTIHFTGHSFIYGKRHEDTLTLFPMRGESVTVTMDNVGTWMLTSMNSSPRSKKLRLKFRDVKCIPDDDEDSYEIFEPPESTVMATRKMHDRLEPEDEESDADYDYQNRLAAALGIRSFRNSSLNQEEEEFNLTALALENGTEFVSSNTDIIVGSNYSSPSNISKFTVNNLAEPQKAPSHQQATTAGSPLRHLIGKNSVLNSSTAEHSSPYSEDPIEDTDYIEIIPKEEVQSSEDDYAEIDYVPYDDPYKTDVRTNINSSRDPDNIAAWYLQSNNGNRRNYYIAAEEISWDYSEFVQRETDIEDSDDIPEDTTYKKVVFRKYLDSTFTKRDPRGEYEEHLGILGPIIRAEVDDVIQVRFKNLASRPYSLHAHGLSYEKSSEGKTYEDDSPEWFKEDNAVQPNSSYTYVWHATERSGPESPGSACRAWAYYSAVNPEKDIHSGLIGPLLICQKGILHKDSNMPMDMREFVLLFMTFDEKKSWYYEKKSRSSWRLTSSEMKKSHEFHAINGMIYSLPGLKMYEQEWVRLHLLNIGGSQDIHVVHFHGQTLLENGNKQHQLGVWPLLPGSFKTLEMKASKPGWWLLNTEVGENQRAGMQTPFLIMDRDCRMPMGLSTGIISDSQIKASEFLGYWEPRLARLNNGGSYNAWSVEKLAAEFASKPWIQVDMQKEVIITGIQTQGAKHYLKSCYTTEFYVAYSSNQINWQIFKGNSTRNVMYFNGNSDASTIKENQFDPPIVARYIRISPTRAYNRPTLRLELQGCEVNGCSTPLGMENGKIENKQITASSFKKSWWGDYWEPFRARLNAQGRVNAWQAKANNNKQWLEIDLLKIKKITAIITQGCKSLSSEMYVKSYTIHYSEQGVEWKPYRLKSSMVDKIFEGNTNTKGHVKNFFNPPIISRFIRVIPKTWNQSIALRLELFGCDIY
notes: range 1-810;range 1492-2196; mature numbering
EC50 (read off the curve) [6]: 10 to 15 nM

B4: Bovine BR (Bos taurus Ser938-Lys996) (peptide, UniProt Q28107 966-1024, looked up)
peptide: SRTWGENIPFKNSHGKQSGHPTFLVTRRKPLQDRQDRRNSRLKEGLPLIRTRRKKKEEK
fold weaker binding than the human BR [8]: 10 fold
IC50 (read off the curve) [9]: 300 to 400 nM
Kd [10]: 28.3 nM

The remaining lines, values ahead:

Kd [3]: 2 nM
Molecule: Factor Xa (FXa) (from UniProt P00742 41-179; P00742 235-488) (enzyme)

EC50 (read off the curve) [7]: 15 to 20 nM
B3: FV-810^R709Q (other, human, UniProt P12259 29-838, looked up)
chain: AQLRQFYVAAQGISWSYRPEPTNSSLNLSVTSFKKIVYREYEPYFKKEKPQSTISGLLGPTLYAEVGDIIKVHFKNKADKPLSIHPQGIRYSKLSEGASYLDHTFPAEKMDDAVAPGREYTYEWSISEDSGPTHDDPPCLTHIYYSHENLIEDFNSGLIGPLLICKKGTLTEGGTQKTFDKQIVLLFAVFDESKSWSQSSSLMYTVNGYVNGTMPDITVCAHDHISWHLLGMSSGPELFSIHFNGQVLEQNHHKVSAITLVSATSTTANMTVGPEGKWIISSLTPKHLQAGMQAYIDIKNCPKKTRNLKKITREQRRHMKRWEYFIAAEEVIWDYAPVIPANMDKKYRSQHLDNFSNQIGKHYKKVMYTQYEDESFTKHTVNPNMKEDGILGPIIRAQVRDTLKIVFKNMASRPYSIYPHGVTFSPYEDEVNSSFTSGRNNTMIRAVQPGETYTYKWNILEFDEPTENDAQCLTRPYYSDVDIMRDIASGLIGLLLICKSRSLDRRGIQRAADIEQQAVFAVFDENKSWYLEDNINKFCENPDEVKRDDPKFYESNIMSTINGYVPESITTLGFCFDDTVQWHFCSVGTQNEILTIHFTGHSFIYGKRHEDTLTLFPMRGESVTVTMDNVGTWMLTSMNSSPRSKKLRLKFRDVKCIPDDDEDSYEIFEPPESTVMATRKMHDRLEPEDEESDADYDYQNRLAAALGIQSFRNSSLNQEEEEFNLTALALENGTEFVSSNTDIIVGSNYSSPSNISKFTVNNLAEPQKAPSHQQATTAGSPLRHLIGKNSVLNSSTAEHSSPYSEDPIEDTDYIEIIPKEEVQSSEDDYAEIDYVPYDDPYKTDVRTNINSSRDPDNIAAWYLRSNNGNRRNYYIAAEEISWDYSEFVQRETDIEDSDDIPEDTTYKKVVFRKYLDSTFTKRDPRGEYEEHLGILGPIIRAEVDDVIQVRFKNLASRPYSLHAHGLSYEKSSEGKTYEDDSPEWFKEDNAVQPNSSYTYVWHATERSGPESPGSACRAWAYYSAVNPEKDIHSGLIGPLLICQKGILHKDSNMPMDMREFVLLFMTFDEKKSWYYEKKSRSSWRLTSSEMKKSHEFHAINGMIYSLPGLKMYEQEWVRLHLLNIGGSQDIHVVHFHGQTLLENGNKQHQLGVWPLLPGSFKTLEMKASKPGWWLLNTEVGENQRAGMQTPFLIMDRDCRMPMGLSTGIISDSQIKASEFLGYWEPRLARLNNGGSYNAWSVEKLAAEFASKPWIQVDMQKEVIITGIQTQGAKHYLKSCYTTEFYVAYSSNQINWQIFKGNSTRNVMYFNGNSDASTIKENQFDPPIVARYIRISPTRAYNRPTLRLELQGCEVNGCSTPLGMENGKIENKQITASSFKKSWWGDYWEPFRARLNAQGRVNAWQAKANNNKQWLEIDLLKIKKITAIITQGCKSLSSEMYVKSYTIHYSEQGVEWKPYRLKSSMVDKIFEGNTNTKGHVKNFFNPPIISRFIRVIPKTWNQSIALRLELFGCDIY
notes: as for B2
